Reference: the RNAGym collection of RNA variant scans (doi:10.1073/pnas.2313332121)

B1: TPR t1 (parent)
chain: GACCAAUCUGCCCUCAGAGCUCGAGAACAUCUUCGGAUGCAGAGGAGGCAGGCUUCGGUGGCGCGAUAGCGCCAACGUCCUCAACCUCCAAUGCAUCCCACCACAUGAUGAUGCCUGAAGAGCCUUGGUUUUUUG

Variants of: B1
Assay: polymerase ribozyme fitness, log enrichment relative to wild type (log ratio); higher = more active; in vitro selection for triplet polymerase activity
How it was run: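 Mutant libraries for each subunit of a heterodimeric triplet polymerase ribozyme were made by PCR and then transcribed. Each library underwent one round of in vitro selection in triplicate: annealing with a biotinylated primer, the partner subunit and triplets, frozen incubation at −7 °C, gel excision of extended constructs, streptavidin-bead capture and RT-PCR. Input and output libraries were Illumina-sequenced, and only genotypes with ≥10 input reads and ≥1 read per output were kept. Fitness is the logarithm, base 2, of genotype enrichment over wild-type enrichment, computed from inverse-variance-weighted replicate averages.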

Going from A5C U38G U96C C104U to A5C C20A A43C G44C G71A C97U U106A C115A, the “polymerase ribozyme fitness (log ratio)” value falls from -2.11 to -6.63.

Going from A5G G10U C72G C86U C97U C114A to A5U A18U C88U, the “polymerase ribozyme fitness (log ratio)” value rises from -3.98 to -2.74.

Compared with A5C G48A, A5C A26U is lower in “polymerase ribozyme fitness (log ratio)” value: -1.85 for the first, -5 for the second.

Compared with A5U C13U U21C C88U G120U, A5U G10A A41G G61A C101U U133G is lower in “polymerase ribozyme fitness (log ratio)” value: -0.379 for the first, -0.742 for the second.

A5U C85A C88U A100U A111G and A5G C114G are within 0.2 log units of each other in “polymerase ribozyme fitness (log ratio)” value: -2.1 for the first, -2.13 for the second.

Compared with A5G G36U A46U G60U A91G U106A, A5U C11G A16U G60U A103C is lower in “polymerase ribozyme fitness (log ratio)” value: -4.94 for the first, -5.34 for the second.

Going from A5G U54G C88A to A5C A18G, the “polymerase ribozyme fitness (log ratio)” value falls from -0.448 to -4.19.

Going from A5G G52C C70G C82U to A5U A26G, the “polymerase ribozyme fitness (log ratio)” value rises from -3.85 to -2.87.

Going from A5C G19A C89A C124G to A5U G19A G69U C72G U112G, the “polymerase ribozyme fitness (log ratio)” value falls from -1.76 to -3.83.

Going from A5U C56G A74U G110A U116G C124G G135U to A5U G19A C40A A111G, the “polymerase ribozyme fitness (log ratio)” value rises from -6.08 to -2.76.

First: A5G C13U A103U
Second: A5G U54C G69C A118G U129A
The “polymerase ribozyme fitness (log ratio)” value of the first is lower: -4.92 for the first, -2.84 for the second.

First: A5C G60A C101U
Second: A5G C85U G113U G122U
The “polymerase ribozyme fitness (log ratio)” value of the first is higher: -0.437 for the first, -3.92 for the second.

Compared with A5G A26C A100U U106A C124A, A5U C20G A121C C123U is lower in “polymerase ribozyme fitness (log ratio)” value: -1.48 for the first, -3.97 for the second.

Going from A5U C11U G63C C80A A105C G113U to A5U C70U, the “polymerase ribozyme fitness (log ratio)” value rises from -5.39 to -0.781.

Going from A5G C89U to A5G C12A U132A U133A, the “polymerase ribozyme fitness (log ratio)” value falls from -0.12 to -1.41.

Compared with A5C U9G, A5U C13G C40U U55A U59A C82G is lower in “polymerase ribozyme fitness (log ratio)” value: 0.0336 for the first, -2.63 for the second.

First: A5C C12U
Second: A5C C72A U96A G127A
The “polymerase ribozyme fitness (log ratio)” value of the first is higher: 0.118 for the first, -2.31 for the second.

First: A5C A18G G63C C88A C101A G120U
Second: A5U C20A C40A G113C C115U
The “polymerase ribozyme fitness (log ratio)” value of the first is lower: -4.57 for the first, -4.07 for the second.

A5G G57U A100U and A5U C62G are within 0.2 log units of each other in “polymerase ribozyme fitness (log ratio)” value: -1.5 for the first, -1.69 for the second.

Compared with A5G A103C C104A, A5G A83C U126A is higher in “polymerase ribozyme fitness (log ratio)” value: -3.08 for the first, -1.99 for the second.

Compared with A5C C22A, A5U A6G G69U C86A C102A is higher in “polymerase ribozyme fitness (log ratio)” value: -4.57 for the first, -2.02 for the second.

First: A5U G10A C11A C72G G110A
Second: A5G U78A G120C
The “polymerase ribozyme fitness (log ratio)” value of the first is lower: -1.86 for the first, 0.799 for the second.

Going from A5G U54G G69U to A5U G10A C15A C70U C79A C94U C99U C124U, the “polymerase ribozyme fitness (log ratio)” value falls from -0.999 to -7.66.

First: A5U G44A A46U C56U U126G U133A
Second: A5C A37U G39C C86A C124G
The “polymerase ribozyme fitness (log ratio)” value of the first is higher: -2.99 for the first, -3.87 for the second.

Going from A5C G51A C86G to A5U C104U U112A G120U, the “polymerase ribozyme fitness (log ratio)” value rises from -4.05 to -0.575.

Compared with A5G G48U G69A C89U C98U A121G, A5U C15G G71C A84U is lower in “polymerase ribozyme fitness (log ratio)” value: -3.81 for the first, -4.19 for the second.

Compared with A5U C40A, A5C C28U G57C is lower in “polymerase ribozyme fitness (log ratio)” value: -2.19 for the first, -3.47 for the second.

First: A5G C11G C28U U59G A118G G127U G135U
Second: A5C G48A C82G
The “polymerase ribozyme fitness (log ratio)” value of the first is lower: -2.91 for the first, -1.18 for the second.

Compared with A5U G35C, A5U G35U is lower in “polymerase ribozyme fitness (log ratio)” value: -4.38 for the first, -5.72 for the second.

Going from A5U C12U A18G C80U C114U to A5C G44A A111U, the “polymerase ribozyme fitness (log ratio)” value falls from -4.01 to -5.64.

Going from A5G G61C C104A to A5G G57A G69C, the “polymerase ribozyme fitness (log ratio)” value rises from -2.73 to -1.65.

First: A5G G47U
Second: A5G C11U G48U G69A U131C
The “polymerase ribozyme fitness (log ratio)” value of the first is higher: -1.19 for the first, -3.72 for the second.

Compared with A5C C8G C40U U112G U133G, A5C G10A C34A G63U C123U is lower in “polymerase ribozyme fitness (log ratio)” value: -0.864 for the first, -4.02 for the second.

A5C C12U G48A and A5U C72G U81C are within 0.2 log units of each other in “polymerase ribozyme fitness (log ratio)” value: -0.983 for the first, -1.14 for the second.

Compared with A5G G47U C62A G71C, A5U C102U G122A is lower in “polymerase ribozyme fitness (log ratio)” value: -1.95 for the first, -3.47 for the second.

Compared with A5C G71U C82A C101G, A5C A18C C123A U130A is higher in “polymerase ribozyme fitness (log ratio)” value: -2.98 for the first, -1.87 for the second.

First: A5U C13G C53G A118U
Second: A5C G117C
The “polymerase ribozyme fitness (log ratio)” value of the first is higher: -2.18 for the first, -3.15 for the second.

A5G C12U G113U U125C and A5C G63C C114U are within 0.2 log units of each other in “polymerase ribozyme fitness (log ratio)” value: -2.74 for the first, -2.9 for the second.

First: A5G U54C G69U A118G U129A
Second: A5U C102A
The “polymerase ribozyme fitness (log ratio)” value of the first is higher: -1.19 for the first, -2.01 for the second.

Going from A5G C11A G58U to A5U G44A C56A C124A G128U U132G U133C, the “polymerase ribozyme fitness (log ratio)” value falls from -1.23 to -2.5.

Compared with A5G C101A C115A, A5C C28U U59C C123U is lower in “polymerase ribozyme fitness (log ratio)” value: -0.823 for the first, -3.1 for the second.

For A5U C11A C115G, the “polymerase ribozyme fitness (log ratio)” value was -6.5.
